{"source": "paper PMC5372524", "about": "“Structural Basis of Native CXCL7 Monomer Binding to CXCR2 Receptor N-Domain and Glycosaminoglycan Heparin” (International Journal of Molecular Sciences, 2017)", "proteins": {"B1": {"name": "CXCL7 (NAP-2, neutrophil-activating peptide 2), wild type (natural protein, UniProt P02775 59-128, looked up)", "chain": "AELRCMCIKTTSGIHPKNIQSLEVIGKGTHCNQVEVIATLKDGRKICLDPDAPRIKKIVQKKLAGDESAD", "notes": "Chemokine CXCL7, also known as NAP-2; 15N-labelled for the HSQC titrations; Exists as monomer, dimer and tetramer depending on pH and concentration; also called WT CXCL7; native CXCL7 monomer; source: Escherichia coli (LB or 15N/13C enriched minimal medium), purified (nickel column, reverse phase HPLC), lyophilized"}}, "biological_target": "the molecule itself", "assay": "relative peak intensities in 2D HSQC NMR spectra; monomer/dimer/tetramer levels of CXCL7 as a function of buffer, temperature, pH and concentration (Table S1)", "note": "Where “and” joins values, the source holds several entries; their conditions need not be identical. Equal entries are not always repeated."}
{"protein": "B1", "values": [{"measurement": "stoichiometry N", "value": "4 and 2"}]}
